The values that follow come from paper PMC10918085, “Cryo-EM structures reveal how phosphate release from Arp3 weakens actin filament branches formed by Arp2/3 complex” (Nature Communications, 2024).

Holding throughout (details): both partners purified
Test [1] has as its target T1, Arp2 of S. pombe Arp2/3 complex (S. pombe, UniProt Q9UUJ1 1-390).
T1 construct: Arp2 subunit of S. pombe Arp2/3 complex; Seen within the whole complex in the branch junction
The test is described as follows: cryo-EM structure; ADP state: branch junctions of capped rabbit actin filaments with GCN4-VCA-activated S. pombe Arp2/3 complex, aged ~90 min; ADP on actin and Arp3, ATP on Arp2; 2.7 Å.

Test [2] deals with T2, ARPC1 of S. pombe Arp2/3 complex (S. pombe, UniProt P78774 1-377).
T2 construct: ARPC1 subunit of S. pombe Arp2/3 complex; Seen within the whole complex in the branch junction
T2 sequence: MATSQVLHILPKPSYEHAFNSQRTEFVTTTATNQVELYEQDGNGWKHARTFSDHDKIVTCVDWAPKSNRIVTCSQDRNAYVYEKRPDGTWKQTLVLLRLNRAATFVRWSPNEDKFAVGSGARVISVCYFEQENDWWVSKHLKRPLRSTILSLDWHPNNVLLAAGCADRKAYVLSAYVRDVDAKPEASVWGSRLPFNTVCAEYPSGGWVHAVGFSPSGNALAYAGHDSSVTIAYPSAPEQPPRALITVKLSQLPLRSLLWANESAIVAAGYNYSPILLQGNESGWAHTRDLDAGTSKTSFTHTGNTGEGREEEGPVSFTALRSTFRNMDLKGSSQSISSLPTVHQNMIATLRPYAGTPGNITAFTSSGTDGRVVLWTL
The test is described as follows: cryo-EM structure; ADP-BeFx state: branch junctions prepared as for the ADP state, with 2 mM BeFx (2 mM BeSO4 and 10 mM NaF) added during daughter filament formation; ADP-BeFx on Arp3, ATP on Arp2; 3.2 Å.

For test [3], the target named is T1, Arp2 of S. pombe Arp2/3 complex. The test is described as above.

T1 sequence (Q9UUJ1 whole entry, one chain of several): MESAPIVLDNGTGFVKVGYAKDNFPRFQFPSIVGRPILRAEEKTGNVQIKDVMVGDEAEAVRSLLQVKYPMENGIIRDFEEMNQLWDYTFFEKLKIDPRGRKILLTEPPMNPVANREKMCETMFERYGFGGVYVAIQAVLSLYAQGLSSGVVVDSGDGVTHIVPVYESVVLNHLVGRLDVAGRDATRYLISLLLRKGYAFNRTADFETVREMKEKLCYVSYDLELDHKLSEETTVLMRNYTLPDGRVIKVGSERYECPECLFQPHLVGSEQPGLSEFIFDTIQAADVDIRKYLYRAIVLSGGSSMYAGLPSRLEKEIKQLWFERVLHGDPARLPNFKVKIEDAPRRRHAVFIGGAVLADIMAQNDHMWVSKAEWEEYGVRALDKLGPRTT

B1: ARPC3 of S. pombe Arp2/3 complex (natural protein)
chain: MPAYHSSFLSLTDVPTTGNIAMLPLKTKFRGPAYPADESQMDIIDECIGLFRANCFFRNFEIKGPADRTLIYGTLFISECLGRVNGLNYRDAERQLNSLALENFSIPGSAGFPLNALYAPPLSPQDAEIMRTYLTQFRQELAYRLLSHVYATEKDHPSKWWTCFSKRRFMNKAL
notes: ARPC3 subunit of S. pombe Arp2/3 complex; Seen within the whole complex in the branch junction
With B1, the binding result in test [1] was “binds”.

B2: ARPC2 of S. pombe Arp2/3 complex (natural protein)
chain: MLSLDYNNIFIYELLTERFSSENPSSIDQVVTDFDGVTFHISTPEEKTKILISLSMKCYPELVNYGTLDLLKQIYGAYVHEPEMGYNFSILIDLQQLPATDEEKEQLAMSISMLKRNVLAAPFHRAFTKQAELADLARKDPENAPMLDKQATSQELMAIHYRDEETIVLWPEHDRVTVVFSTKFREETDRIFGKVFLQEFVDARRRPAIQTAPQVLFSYRDPPLEIRDIQGIQKGDDFGFVTFVLFERHFTPQNREDCISHIQVFRNTLHFHIKASKAYMHQRMRKRVADFQKVLNRAKPDVELERKTATGRSFVRA
notes: ARPC2 subunit of S. pombe Arp2/3 complex; Seen within the whole complex in the branch junction
B2: the binding result in test [2] and in test [3] was “binds” each time.
